Data taken from patent publication US20230201308A1, “TREATMENT OF CORONAVIRUS INFECTION WITH […]” (Eiger Biopharmaceuticals, Inc., priority 2020, published 2023).
Read-outs that look alike come from different tables or passages of the source.

Tested on: SARS-CoV-2
[1] = Treated within 5 days of symptom onset, n=800 vs placebo 879
[2] = Unvaccinated population, n=143 vs placebo 176
[3] = final, treatment ≤3 days of symptom onset
[4] = high-risk patients, pooled Brazil+Toronto
[5] = intention-to-treat, N = 931 vs placebo N = 1018
[6] = treatment within 3 days of symptom onset
[7] = unvaccinated patients, treatment within 3 days of symptoms
[8] = ≤3 days of symptoms before treatment, preliminary

B1: pegylated interferon lambda-1a (protein)
chain: MKPTTTGKGCHIGRFKSLSPQELASFKKARDALEESLKLKNWSCSSPVFPGNWDLRLLQVRERPVALEAELALTLKVLEAAAGPALEDVLDQPLHTLHHILSQLQACIQPQPTAGPRPRGRLHHWLHRLQEAPKKESAGCLEASVTFNLFRLLTRDLKYVADGNLSLRTSTHPEST
modifications: PEG
notes: 180 mcg subcutaneous injection
With B1 the “Hospitalization or ER (any duration) for COVID-19, RR (95% CrI) vs placebo” value [1] was 0.73 (0.56, 0.94), the “Hospitalization or ER ≥6 h for COVID-19, % of patients” value [1] was “(2.5%)” and the “Hospitalization or ER ≥6 h for COVID-19, Pr (Superiority)” value [1] was 1.000. For the same molecule, the “Hospitalization or ER ≥6 h for COVID-19, RR (95% CrI) vs placebo” value [1] was 0.45 (0.26, 0.72), the “Death due to COVID-19, % of patients” value [2] was 0 (0%) and the “Death due to COVID-19, RR (95% CrI) vs placebo” value [2] was 0.51 (0.02, 6.47). The “Death or hospitalization due to COVID-19, % of patients” value [2] was 4.2%, the “Death or hospitalization due to COVID-19, RR (95% CrI) vs placebo” value [2] was 0.49 (0.19, 1.12) and the “Hospitalization for COVID-19, % of patients” value [2] was 4.2%. For the same molecule, the “Hospitalization for COVID-19, RR (95% CrI) vs placebo” value [2] was 0.49 (0.19, 1.12), the “Hospitalization or ER (any duration) for COVID-19, % of patients” value [2] was 16.1% and the “Hospitalization or ER (any duration) for COVID-19, Pr (Superiority)” value [2] was 0.806. The “Hospitalization or ER (any duration) for COVID-19, RR (95% CrI) vs placebo” value [2] was 0.82 (0.50, 1.29), the “Hospitalization or ER ≥6 h for COVID-19, % of patients” value [2] was 4.2% and the “Hospitalization or ER ≥6 h for COVID-19, Pr (Superiority)” value [2] was 0.967. The “Hospitalization or ER ≥6 h for COVID-19, RR (95% CrI) vs placebo” value [2] was 0.46 (0.18, 1.05), the “deaths in the arm” value (early treated patients) was “no deaths” and the “COVID-19 deaths in the treatment arm” value (final ITT) was “one”. The “Hazard ratio, COVID-19-related hospitalization or death (all-cause death)” value (final ITT) was 0.59, the “hazard ratio, COVID-19 death” value (final ITT) was 0.22 and the “hazard ratio, risk of hospitalization” value (final ITT) was 0.57. For the same molecule, the “relative risk, COVID-19-related hospitalization alone” value (final ITT) was 0.57, the “risk reduction, COVID-19-related hospitalization or all-cause death” value (final ITT) was 41% and the “relative risk, primary outcome” value (final ITT, 931 vs placebo 1018) was 0.49. The “participants experiencing a primary outcome event, %” value (final ITT, n=931) was 2.7%, the “participants experiencing a primary outcome event, count” value (final ITT, n=931) was 25 of 931 and the “absolute risk reduction (with 95% Bayesian credible intervals) plotted, FIG. 14” value (final ITT, patients receiving peginterferon lambda) was 0.028 (0.018, 0.039). The “relative risk, primary outcome” value (final, treatment within 3 days of symptom onset) was 0.42, the “Hazard ratio, COVID-19-related hospitalization or death” value [3] was 0.35 and the “risk reduction, COVID-19-related hospitalization or death” value [3] was 65%. For the same molecule, the “RR, All-cause mortality or Hospitalization” value (high-risk patients, Brazil) was 0.69, the “RR, Death or Hospitalization due to COVID-19” value (high-risk patients, Brazil) was 0.63 and the “RR, Hospitalization or ER visit>6 hours” value (high-risk patients, Brazil) was 0.49. For the same molecule, the “probability of superiority (Pr), Hospitalization or ER visit>6 hours” value (high-risk patients, Brazil) was 0.990, the “Pr, Hospitalization or ER visit>6 hours” value [4] was 0.990 and the “RR, All-cause mortality or Hospitalization” value [4] was 0.69. For the same molecule, the “RR, Death or Hospitalization due to COVID-19” value [4] was 0.63, the “RR, Hospitalization or ER visit>6 hours” value [4] was 0.49 and the “participants with primary outcome event, count” value (human, in vivo) was 23/929. The “relative risk, primary outcome” value (human, in vivo) was 0.47, the “Days on mechanical ventilation: mean” value (intention-to-treat, N = 931) was 10.2 days and the “Death due to COVID-19: percentage of patients” value (intention-to-treat, N = 931) was “(0.1%)”. The “Death due to COVID-19: total (no. of patients)” value (intention-to-treat, N = 931) was 1, the “Death or hospitalization due to COVID-19: percentage of patients” value (intention-to-treat, N = 931) was “(2.4%)” and the “Death or hospitalization due to COVID-19: total (no. of patients)” value (intention-to-treat, N = 931) was 22. For the same molecule, the “Hospitalization for COVID-19: percentage of patients” value (intention-to-treat, N = 931) was “(2.3%)”, the “Hospitalization for COVID-19: total (no. of patients)” value (intention-to-treat, N = 931) was 21 and the “Hospitalization or ER (any duration) for COVID-19: percentage of patients” value (intention-to-treat, N = 931) was “(10.6%)”. The “Hospitalization or ER (any duration) for COVID-19: total (no. of patients)” value (intention-to-treat, N = 931) was 99, the “Hospitalization or ER visit >6 h for COVID-19: percentage of patients” value (intention-to-treat, N = 931) was “(2.7%)” and the “Hospitalization or ER visit >6 h for COVID-19: total (no. of patients)” value (intention-to-treat, N = 931) was 25. For the same molecule, the “Days on mechanical ventilation: MD (95% CrI), estimated treatment effect” value [5] was −4.47 (−6.89, 3.09), the “Days on mechanical ventilation: Probability of Superiority (MD)” value [5] was 90.5 and the “Days to death for COVID-19: HR (95% CI), estimated treatment effect” value [5] was 0.22 (0.01, 1.64). The “Days to death for COVID-19: Probability of Superiority (HR)” value [5] was 90.7, the “Days to death or hospitalization due to COVID-19: HR (95% CrI), estimated treatment effect” value [5] was 0.59 (0.35, 0.97) and the “Days to death or hospitalization due to COVID-19: Probability of Superiority (HR)” value [5] was 98.1. The “Days to hospitalization for COVID-19: HR (95% CrI), estimated treatment effect” value [5] was 0.57 (0.33, 0.95), the “Days to hospitalization for COVID-19: Probability of Superiority (HR)” value [5] was 98.5 and the “Days to hospitalization or ER visit >6 h for COVID-19: HR (95% CrI), estimated treatment effect” value [5] was 0.47 (0.29, 0.73). For the same molecule, the “Days to hospitalization or ER visit >6 h for COVID-19: Probability of Superiority (HR)” value [5] was >99.9, the “Death due to COVID-19: Probability of Superiority (RR)” value [5] was 86.9 and the “Death due to COVID-19: RR (95% CrI), estimated treatment effect” value [5] was 0.39 (0.05, 1.95). The “Death or hospitalization due to COVID-19: Probability of Superiority (RR)” value [5] was 97.7, the “Death or hospitalization due to COVID-19: RR (95% CrI), estimated treatment effect” value [5] was 0.61 (0.36, 0.99) and the “Hospitalization for COVID-19: Probability of Superiority (RR)” value [5] was 98.3. The “Hospitalization for COVID-19: RR (95% CrI), estimated treatment effect” value [5] was 0.58 (0.34, 0.96), the “Hospitalization or ER (any duration) for COVID-19: Probability of Superiority (RR)” value [5] was 98.1 and the “Hospitalization or ER (any duration) for COVID-19: RR (95% CrI), estimated treatment effect” value [5] was 0.78 (0.61, 0.99). The “Hospitalization or ER visit >6 h for COVID-19: Probability of Superiority (RR)” value [5] was >99.9, the “Hospitalization or ER visit >6 h for COVID-19: RR (95% CrI), estimated treatment effect” value [5] was 0.49 (0.30, 0.76) and the “relative risk, primary outcome” value (per protocol analysis (25/931 vs 43/825)) was 0.52. The “fewer COVID-19-related deaths than placebo” value (preliminary ITT) was 75%, the “hazard ratio, COVID-19-related hospitalization” value [6] was 0.35 and the “relative risk, all-cause death” value [6] was 0.19. The “risk reduction in all-cause death” value [6] was 81%, the “risk reduction of COVID-19-related hospitalization” value [6] was 65% and the “Hazard ratio vs. placebo” value [7] was 0.11. For the same molecule, the “risk (hazard) reduction, COVID-19-related hospitalization or death” value [7] was 89%, the “Risk Reduction (95% BCI), Hospitalizations or Deaths” value [8] was 60% (17-82%) and the “Risk Reduction (95% BCI), Hospitalizations or ER visits” value [8] was 67% (19-79%). The “Risk Reduction (95% BCI), Hospitalizations or Deaths” value (≤7 days of symptoms before treatment, preliminary) was 39% (1-64%).
